Results reported in US20250034271A1.

Tests used:
[1] = target: monkey (rhesus macaque) CD40 (rmCD40) on transfected CHO cells (rhesus macaque); assay: flow cytometry, CHO-rmCD40 cells, negative control, anti-mIgG Fc-FITC; x: Anti-mouse-IgG-Fc-FITC, y: SSC-H
[2] = target: mouse CD40 (mCD40) on transfected CHO cells (mouse) (UniProt P27512); assay: flow cytometry, CHO-mCD40 cells, negative control, anti-mIgG Fc-FITC; x: Anti-mouse-IgG-Fc-FITC, y: SSC-H
[3] = target: chimeric (mouse and human) CD40 (chiCD40) on transfected CHO cells (chimeric (mouse and human)); assay: flow cytometry, CHO-chiCD40 cells, negative control, anti-mIgG Fc-FITC; x: Anti-mouse-IgG-Fc-FITC, y: SSC-H
Chain of chimeric (mouse and human) CD40 (chiCD40) on transfected CHO cells (chimeric (mouse and human)) (chain, as listed by the source mutant limits assumed): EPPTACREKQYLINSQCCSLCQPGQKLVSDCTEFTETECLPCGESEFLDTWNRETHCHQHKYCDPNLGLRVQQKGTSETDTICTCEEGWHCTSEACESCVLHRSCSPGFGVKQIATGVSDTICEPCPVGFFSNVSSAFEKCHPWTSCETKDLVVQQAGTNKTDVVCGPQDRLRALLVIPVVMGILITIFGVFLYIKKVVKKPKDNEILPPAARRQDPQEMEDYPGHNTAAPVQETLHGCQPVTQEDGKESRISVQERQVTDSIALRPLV

Chain of mouse CD40 (mCD40) on transfected CHO cells (mouse) (P27512 20-289 limits assumed): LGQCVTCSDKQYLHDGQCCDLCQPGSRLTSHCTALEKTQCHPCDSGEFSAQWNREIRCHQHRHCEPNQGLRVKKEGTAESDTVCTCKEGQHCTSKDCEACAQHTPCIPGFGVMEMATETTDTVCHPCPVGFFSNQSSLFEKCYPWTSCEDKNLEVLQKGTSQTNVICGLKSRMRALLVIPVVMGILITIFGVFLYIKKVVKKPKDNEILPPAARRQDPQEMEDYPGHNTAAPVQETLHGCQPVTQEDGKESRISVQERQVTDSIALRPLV
Chain of monkey (rhesus macaque) CD40 (rmCD40) on transfected CHO cells (rhesus macaque) (P25942 other isoform, or with tags, fused parts or gaps limits assumed): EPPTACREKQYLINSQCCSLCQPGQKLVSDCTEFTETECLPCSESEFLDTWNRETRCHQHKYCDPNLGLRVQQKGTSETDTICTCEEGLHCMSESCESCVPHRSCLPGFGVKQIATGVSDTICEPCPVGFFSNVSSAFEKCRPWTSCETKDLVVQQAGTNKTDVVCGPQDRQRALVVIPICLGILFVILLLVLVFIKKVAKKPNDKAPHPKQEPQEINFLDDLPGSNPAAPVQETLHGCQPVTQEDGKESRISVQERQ

NC
% cells in the Anti-mouse-IgG-Fc-FITC positive gate [1]: 1.19%
% cells in the Anti-mouse-IgG-Fc-FITC positive gate [2]: 1.01%
% cells in the Anti-mouse-IgG-Fc-FITC positive gate [3]: 1.19%
